Read-outs that look alike come from different tables or passages of the source.
What was measured:
[1] = molecular target: Coagulation Factor XIa (human) (UniProt P03951); assay: stoichiometry of inhibition (SI) titration, residual FXIa activity; varying ratios of AAT variant to FXIa incubated at ambient temperature for 2 h; residual FXIa activity determined at 37 °C; regression to zero activity
[2] = molecular target: Coagulation Factor XIa (human) (UniProt P03951); assay: kinetics of protease inhibition (second order rate constant k2, discontinuous method, residual protease activity); protease 5-75 nM, at least 10:1 molar ratio of AAT variant to protease (pseudo-first order), 37 °C, PPNE buffer (20 mM sodium phosphate pH 7.4, 100 mM NaCl, 0.1 mM EDTA, 0.1% polyethylene glycol 8000)
[3] = molecular target: thrombin (human); assay: as above
[4] = molecular target: Coagulation Factor XIa (human) (UniProt P03951); assay: as above; remark: listed apart in the source
[5] = molecular target: Coagulation Factor XIa (human) (UniProt P03951); assay: as above; remark: listed apart in the source
[6] = molecular target: thrombin (human); assay: as above; remark: listed apart in the source
[7] = molecular target: Activated Protein C (human); assay: as above
[8] = molecular target: Factor XIIa (human); assay: as above
[9] = molecular target: Factor Xa (human); assay: as above
[10] = molecular target: kallikrein (human); assay: as above

Row | stoichiometry of inhibition (SI) [1] | k2 (second order rate constant of inhibition) [2] | k2 (second order rate constant of inhibition) [4] | Sequence | other results
1 | 3.3 | 41000 M⁻¹ s⁻¹ |  | AAT M358R/PRSTE, cleavable GST fusion system (designed binder) | k2 (second order rate constant of inhibition) [3]: 1200 M⁻¹ s⁻¹
2 |  |  | 38000 | AAT M358R/PRSLD, from the pBAD P2'/P3' bacterial expression library (designed binder) | 
3 |  |  | 180000 M⁻¹ s⁻¹ | AAT M358R (alpha-1 antitrypsin M358R), arabinose-inducible system (natural protein) | k2 (second order rate constant of inhibition) [5]: 190000 M⁻¹ s⁻¹; k2 (second order rate constant of inhibition) [6]: 160000 M⁻¹ s⁻¹
4 | 2.1 | 160000 M⁻¹ s⁻¹ | 170000 M⁻¹ s⁻¹ | AAT M358R (alpha-1 antitrypsin M358R), cleavable GST fusion system (natural protein) | k2 (second order rate constant of inhibition) [3]: 210000 M⁻¹ s⁻¹; k2 (second order rate constant of inhibition) [7]: 40000 M⁻¹ s⁻¹; k2 (second order rate constant of inhibition) [8]: 23000 M⁻¹ s⁻¹; k2 (second order rate constant of inhibition) [9]: 35000 M⁻¹ s⁻¹; k2 (second order rate constant of inhibition) [10]: 40000 M⁻¹ s⁻¹
5 |  |  |  | AAT M358R/QSIIS, arabinose-inducible system (designed binder) | k2 (second order rate constant of inhibition) [6]: 100000 M⁻¹ s⁻¹
6 |  |  | 45000 | AAT M358R/PRSTE, from the pBAD P2'/P3' bacterial expression library (designed binder) | 
7 | 12.7 | 34000 M⁻¹ s⁻¹ |  | AAT M358R/HASTGQ, cleavable GST fusion system (designed binder) | 

— PMC7946950
